Results taken from the DeepSol protein solubility set.

Test: soluble on expression in E. coli; label from the status in PepcDB or PDB records
In the case of “MGSDKIHHHHHHMLKVDPTSPELSILLANPRGFCAGVDRAISIVERALELFEPPIYVRHEVVHNRYVVENLKQRGALFIDELDQVPDNSIVIFSAHGVSQAVRKEAKNRGLKVFDATCPLVTKVHLQVTRASRKGIECILIGHEGHPEVEGTMGQYDNPKGGVYLIESPEDVNNLQVNNPDNLCFVTQTTLSVDDTLDIITALQKRFPSIEGPRKDDICYATQNRQDAVRSMSSEVDLLIVVGSKNSSNSNRLRELAEKTGTQSYLVDTAADVEAMWFDGVKKVAVTAGASAPEVLVQQVVNAIAKLAPSIITEVEGRKEDTVFAVPAELR”, the “soluble on expression in E. coli” value is reported as “not soluble”. With “MGSDKIHHHHHHMLNFTVGPVMSSEEVRAIGAEQVPYFRTTEFSSTMLENEKFMLEYAKAPEGSKAVFMTCSSTGSMEAVVMNCFTKKDKVLVIDGGSFGHRFVQLCEIHEIPYVALKLEHGKKLTKEKLYEYDNQNFTGLLVNVDETSTAVLYDTMMIGEFCKKNNMFFVCDCVSAFLADPFNMNECGADVMITGSQKVLACPPGISVIVLAPRGVERVEKSKVRTMYFDLKDALKNQERGQTPFTPAVGILLQINERLKEIKKHGGADAEVARIASQAADFRAKIKDLPFELVSESPANGVTSVHPTTANAYDIFLKLKDEYGIWICPNGGEMKDTIFRVGHIGALTHEDNTTLVNAFKDLQKRNLL” the “soluble on expression in E. coli” value was “not soluble”. With “MGSDKIHHHHHHMLNWLRTLLGRVRADPDTIPETLWQHTLAQYPFLAQRAAAEQSQLRTLAGQFLAGKEFSGAQGLVVTDEMAVAIAAQACLPVLHLGLDYYDDFKGIVVHPGAMLARREVMDDSGVVHRYSEVLLGEAMERGPVTLSWQDVAAAGESASQGYNVVVHEFIHKIDMRDGTANGCPPLPSRTAREAWQAVMQPAYDDFREQVAMAERFGGAPPWLDSYAATSPAEFFAVTCEAYFVNRPRFAQDFAALAGLFDEYFRRNRLSTQ” the “soluble on expression in E. coli” value was “not soluble”. With “MGSDKIHHHHHHMLPQGVKDQKYDQNENIPVSWNCEESDQNHNKQKRNGSPAEGKAQKGGKETQNVLEDVVPEDAEKGKNIDHSTTPMTITLSGTSRVTFSRKYSSSRPATVPMNRYSLKATFHFSLSKYTFQPVTSMSSITESLGTRSPLTTPTTDSRSFSTLTFSTKSSENTLITFEIGPFSTTIPRNLFSSGSRTMAPSSASPRM” the “soluble on expression in E. coli” value was “not soluble”. In the case of “MGSDKIHHHHHHMLRGGAPAVRMNAMKIISVNVGQPTALQVGQRTAVSGIRKHPVPGRVQVGEKGLEGDHVLNRRYHGGPDQAVYVYTREDYDHWTELLGRALEPGAFGENVLISGAESAEVRVGERFLLGAVEIEVTAPRLPCSTLGARMEDAGFVKRFKAARRPGFYARVLQSGDIGRGDPVTRTPAPDGAPTIGELFDADFAKSHDPAELRAWLTFPLGKRQRKEVEKWLAKAEG”, the “soluble on expression in E. coli” value is reported as “not soluble”. In the case of “MGSDKIHHHHHHMLRSTISLLMNSAAQKTMTNSNFVLNAPKITLTKVEQNICNLLNDYTDLYNQKYHNKPEPLTLRITGGWVRDKLLGQGSHDLDIAINVMSGEQFATGLNEYLQQHYAKYGAKPHNIHKIDKNPEKSKHLETATTKLFGVEVDFVNLRSEKYTELSRIPKVCFGTPEEDALRRDATLNALFYNIHKGEVEDFTKRGLQDLKDGVLRTPLPAKQTFLDDPLRVLRLIRFASRFNFTIDPEVMAEMGDPQINVAFNSKISRERVGVEMEKILVGPTPLLALQLIQRAHLENVIFFWHNDSSVVKFNEENCQDMDKINHVYNDNILNSHLKSFIELYPMFLEKLPILREKIGRSPGFQQNFILSAILSPMANLQIIGNPKKKINNLVSVTESIVKEGLKLSKNDAAVIAKTVDSICSYEEILAKFADRSQLKKSEIGIFLRNFNGEWETAHFASLSDAFLKIPKLETKKIELLFQNYNEFYSYIFDNNLNNCHELKPIVDGKQMAKLLQMKPGPWLGKINNEAIRWQFDNPTGTDQELITHLKAILPKYL”, the “soluble on expression in E. coli” value is reported as “not soluble”. In the case of “MGSDKIHHHHHHMLTKRQLLVLKEIIRLFTESGQPVGSKTLMQELPVHVSSATIRNDMAALEDAGLITKTHSSSGRVPSTQGYRYYLDHLVEPVRVSRHDLATIKQELGQRYSKMDEIVAQSAQILSNLTSYTAISLGPEVNNIKLTGFRLVPLGNHQVMAILVTNNGNVENQVFTVPPSISFDELEKAIRIVNDQLVGLPLVQVAQRLRTDVPSMLMQYLTSPDGFLDIFGNVLKSAASERFYVGGRLNLMDYLGDSDIHELKKIMSLIDADHGDLTELLGGPIRQTPVQVRLGPELKPIDLANLSLITASYDVGGHGTGMIALLGPTQMPYSKMIGLLDVFREELAKRLTDYYANFDQ”, the “soluble on expression in E. coli” value is reported as “not soluble”. With “MGSDKIHHHHHHMLTKSSTELVRQQNSALVLAALRRKGSLSHTEIAAQTGLASATISVITAELERSGIIAKTEQHVQGGRGRPRVLFEPRRGCGYVIVVRISSDVVQYSLADYGGILLDRFEDARSHDLRGTAAFGEVLAAALERLLVRSNISKDEVLAISISSKGLVAGGGARLIWSPVFGREQLDFVELLRPAWRARIMLSNESLLVAHALAVREEERERGFHALAAVSLGHSIGLGLARRGKSGELDVSAPDFGHMLHQASAGLCRCGSYGCIEAAAGFYGILRTAFEVPSDTIPAKFVPLSEVDKIAASARQGNRMGGYAFRQAGLALGNGISRMLSLYEPMPIFVTGPGTRYFDLLEKGLEEGLAHSLQVRLQGMPQIRVVPDEQRLVFDGHLNRALGAIDGDIAAAGHP” the “soluble on expression in E. coli” value was “not soluble”. For “MGSDKIHHHHHHMLTYDLTKTDGPLYKCLYECIKNDISQGKLSSGEKMPSKRTLAKNLGVSTITVENAYDQLIGEGYMFARPKKGYFIADVSDIRVIKAPVQKELSIKLPPEQDESIFDFSSNRTDSGNFPFSIWAKLMRETISLREQELLSVSPCGGVRELREAIASHLSSFRGMNVDPDQIIVGAGTEYLYGLLVKLLGTDKVYCVEDPGYKKISQIYECNNAKCLPVQMDEQGISVELIKKANAQIAHISPTHHFPTGITMPVNRRYELLAWANESSDRYIIEDDYDSEFRMNGHPIPPILSIDACEKVIYINTFSKSLTSTIRISYMVLPEHLANEFYRRLSFYSCTVSTFEQYTLARFISEGYFEKHINRMRLHYGRKRQSVLSSIKGCFTEKECRVIENDSGLHFIIQFDTNLPDKTVEERLLKKGIKLQAITHFNLIKPKEDRHQFIINYSNIDADRIMDELLIIKDTIL”, the “soluble on expression in E. coli” value was “not soluble”. In the case of “MGSDKIHHHHHHMLVELKKPKLKDGKDQLRSYCNATGSPIAVWTNGDQISYYQRKDPNYFEDIPGLPNANQTLADILQIKFTLEDLIANDKLVKENKSLKTLIEEMEDDVLANAGVDVFEELFKLIFTKLYDEWYSGQGNRRSTRSLEFRNTGQTEAALKTKIQDLFDKAKKKWEGVFSEDAKISLTPSHLSVCVSSLENVKLFNSNLDVIDEAFEYLINQSSKGEKGQFFTPRYVIDLCVKMLNPQEDEYMIDTAAGSSGFPVHTIFHVWRQILDDEGLSASHLFSLEDKPPRCKEYVEDKVFAIDFDEKAVRVARTLNLIAGDGQTNVLHLNTLDYELWDEVTEQDDWDDIYHEGFKRLKRLRPKNSKDYREFQFDVLMANPPFAGDIKEPDTVGECNTYLYLKVLCKLKPSICRCSF”, the “soluble on expression in E. coli” value is reported as “not soluble”. With “MGSDKIHHHHHHMLYLIGLGLSYKSDITVRGLEAIKKCSRVYLEHYTSILMAASQEELESYYGKEIILADRELVETGSKQILNNADKEDVAFLVVGDPFGATTHTDLVLRAKREAIPVEIIHNASVMNAVGACGLQLYNFGQTVSMVFFTDNWRPDSWYDKIWENRKIGLHTLVLLDIKVKEQSIENMARGRLIYEPPRYMSIAQCCEQLLEIEEKRGTKAYTPDTPAVAISRLGSSSQSFKSGTISELANYDSGEPLHSLVILGRQCHELELEYLLEFADDKEKFGKDVANDQEYFKPAAWVPPTEDDSDE” the “soluble on expression in E. coli” value was “not soluble”. In the case of “MGSDKIHHHHHHMLYRQKVLLALIDVFGGTIDRLYLQKMLFLLSQRQEKPIYEFVPYYYGGFSFTAQWDINALFRKGFLAVDKHTVTLVQKHPQLFDSVTERDMHFLHELCQQYRYKARNDLLRELYEQYPYYAQQSKILDEILDDEAKRRIKQCQDEESRIVLFTIGYEGRSLENYLNTLIRNGIKILVDVRNNPVSMKPGFSKSQLRTYCENLGIGYIHIPEVGIVSELRKNLKSQEDYEELFAAYRREILPTTVSFQQRILNILLCYHRIALTCFEAESQRCHRSHLADAISKLPEFSYEVVHL”, the “soluble on expression in E. coli” value is reported as “not soluble”. In the case of “MGSDKIHHHHHHMMKKIEEARTFISERTNLSPDILIILGSGFGPFIEKVEDPVIIDYKDIPHFPQPTVEGHSGKLVFGRISDKPVMIMAGRFHLYEGHDPATVAFPVYLAKYVGVKGVVVTNAAGAINPEFKPGEIILVRDIINFMFRNPLRGPNDEKIGPRFPDMSSVVDPEWARKIQERLSLKEGVYIGVLGPSYETPAEIRVFEKLGADLVGMSTVPEVIAAKHCGLKVVVFSCVTNMAAGITHGRLSHEEVVRTTKMAQGKIEKALTTAVEVF”, the “soluble on expression in E. coli” value is reported as “soluble”. In the case of “MGSDKIHHHHHHMMKLSTMKKVVATVDKKWRSPLAEFILERWGFDRHSVFYWRASANFIFMFQHHGKKYYLRFNDSCERNLTLIKEELKLVQYLGSQALAIAQPVLSKNNNLVEVVITPIGTFYAVVFEALDGEHLSFEEMNEEQLFLWGEMLGTIHENLKNVPNDLAIKRPSWKDDLEKVKEWIPSNEIAAMKELEMISEWADQLPITKENFGIIHYDFELDNVRFNEITIGALDFDDCAYYWYVADIVYALRDAGKFRVTTPAIKTFIKGYKSSTFLEEELLEEANGFERLHHLVSFARLLRSVDKDYSKEEPGYLMDLRKNLVSLINNYRLSFEQNHK”, the “soluble on expression in E. coli” value is reported as “not soluble”. With “MGSDKIHHHHHHMMLSVSLAALRTFVEVARLRSFKDAAQSLGVTSGAVSQQVKLVENRLDVTLFERSGRNVKLTEQGLRLLGAIHVPFEQIREAVEDFDRRRSARNVVRIVTPIALASHWLVPRMDRFSRRHPDIELHIDTAHAEGVRRQLFDIAIQYGNETAPGVEAKRLPSSKLVVVGSPQLLEGASPIRDPSDCLKFPLLHDHDRLNWPAWFRANGSTHLPAASRKGLSFADESLLVAAAAAAQGLALVRDIHAENLLLHGRLKIAIETSMEPFQSYYLLTPSLVSQRPVVDACKNWILSEMARPVFLDLLSRP” the “soluble on expression in E. coli” value was “not soluble”. In the case of “MGSDKIHHHHHHMMPAKWDEVRPLLDRFSRDLPTNATVWFMMPDGSYYATAKGGFTDQNLKDCTCFPKLIGGKEVLGELVISRSTGQRSIVVAAPVVADGKVVAAVGVSVDAVKLIEVVESRMTLPENAYIYALDAKTKVTLHRYQARTFKTVFEIGNESLGDTFKKVMHREQGVFNYSLEGKKMNSIFRKSPVHGWYFFIAQQCK”, the “soluble on expression in E. coli” value is reported as “not soluble”. With “MGSDKIHHHHHHMMSLSNERLIHDPLEWDALVARYGLDCYYEYAYFKLAQEPEAVPEMYVHPSEFGILIYPYLKRRISGTPLQDLTTPYGYGGPVFVGLWSSDQIKDIRRHFLEYCQAERIVSETIRFHPLLENDELGRSWCETTTVLQQTVTVALSEPFEAIESQFSSMTRRNIRKAVREDVTVRVAGQEEYAKFIRLYRLTMDKHQADARYYFTDHYFRQFHDGRLPAELLVAEREGKIIAGCIVLYGQQFAHYHLGASDPAELSARPNHLLFAEMIRRAKALGKTALHLGGGTTRNEDDSLLAYKRSFSNRQTSFTLGTSVLHPLLYRQLSEQHFAHNVLSSQDWFPAYRTPVRQLSPRGEQSS” the “soluble on expression in E. coli” value was “not soluble”. With “MGSDKIHHHHHHMMVLTLKDFEQTYFYKTELIQLCKVYGLPTYGTKAELNKYLTLYLSGTPACDIKVNRKHTTSRNKTKITLETKILGEGFSFNQEARKLFAEYFGKEKFSFKKEMAVIKRQAEHNGETKMTVRDLLERYQEMVGQGNVLRETAEEATYQWNNFVRDFCKSSESQNYHQKLKVAAILWEKVKNSKNDKKFEASLVQKYEKNISNYMNK” the “soluble on expression in E. coli” value was “not soluble”. In the case of “MGSDKIHHHHHHMNAAQAGLYVDQLTVTWRNGHTALRDASFSVPRGSIAALVGVNGSGKSTLFKALMGFVRVGHGEIAILGQPVNRALRQNLVAYVPQSEEMDWSFPVLVEDVVMMGRYGHMGWLRRAKPRDREIVDAALARVGMSEFRHRQIGELSGGQKKRVFLARAIAQQGQVILLDEPFTGVDVQTEARIISLLRELRDEGCTMLVSTHNLGSVSEFCDYTVMVKGTVLASGPTETTFTAENLERAFSGVLRHVALTGGEAQVITDDERPFISRRAAGGPR”, the “soluble on expression in E. coli” value is reported as “not soluble”.
